Assay results taken from patent publication US20230340087A1 (published 2023).

B1: ABAB binding agent (AH3/5D/AA6/E3), tetra-specific, tetrameric VHH binding agent (designed binder)
chain: QVQLVETGGGLVQPGGSLRLSCAASGFTLDYSSIGWFRQAPGKEREGVSCISSSGDSTKYADSVKGRFTTSRDNAKNTVYLQMNSLKPDDTAVYYCAAFRATMCGVFPLSPYGKDDWGKGTLVTVSSGGGGSGGGGSGGGGSQVQLVESGGGLVQPGGSLRLSCEASGFTLDYYGIGWFRQPPGKEREAVSYISASARTILYADSVKGRFTISRDNAKNAVYLQMNSLKREDTAVYYCARRRFSASSVNRWLADDYDVWGRGTQVAVSSGGGSGGGSGGGSGGGSQLQLVETGGGLVQPGGSLRLSCAASGFTFSDYVMTWVRQAPGKGPEWIATINTDGSTMRDDSTKGRFTISRDNAKNTLYLQMTSLKPEDTALYYCARGRVISASAIRGAVRGPGTQVTVSSGGGGSGGGGSGGGGSQVQLVESGGGLVQTGGSLRLSCASSGSIAGFETVTWSRQAPGKSLQWVASMTKTNNEIYSDSVKGRFIISRDNAKNTVYLQMNSLKPEDTGVYFCKGPELRGQGIQVTVSS
notes: also called r-ABAB; recombinant ABAB
B2: AA6 VHH peptide monomer (VHH)
VHH: QLQLVETGGGLVQPGGSLRLSCAASGFTFSDYVMTWVRQAPGKGPEWIATINTDGSTMRDDSTKGRFTISRDNAKNTLYLQMTSLKPEDTALYYCARGRVISASAIRGAVRGPGTQVTVSS

Target: T1, Clostridium difficile toxin A (TcdA) (Clostridium difficile, UniProt P16154 1-2710)
T1 construct: also called TxA; rTcdA
Assay: binding kinetics, method not stated

T1 sequence (P16154 whole entry): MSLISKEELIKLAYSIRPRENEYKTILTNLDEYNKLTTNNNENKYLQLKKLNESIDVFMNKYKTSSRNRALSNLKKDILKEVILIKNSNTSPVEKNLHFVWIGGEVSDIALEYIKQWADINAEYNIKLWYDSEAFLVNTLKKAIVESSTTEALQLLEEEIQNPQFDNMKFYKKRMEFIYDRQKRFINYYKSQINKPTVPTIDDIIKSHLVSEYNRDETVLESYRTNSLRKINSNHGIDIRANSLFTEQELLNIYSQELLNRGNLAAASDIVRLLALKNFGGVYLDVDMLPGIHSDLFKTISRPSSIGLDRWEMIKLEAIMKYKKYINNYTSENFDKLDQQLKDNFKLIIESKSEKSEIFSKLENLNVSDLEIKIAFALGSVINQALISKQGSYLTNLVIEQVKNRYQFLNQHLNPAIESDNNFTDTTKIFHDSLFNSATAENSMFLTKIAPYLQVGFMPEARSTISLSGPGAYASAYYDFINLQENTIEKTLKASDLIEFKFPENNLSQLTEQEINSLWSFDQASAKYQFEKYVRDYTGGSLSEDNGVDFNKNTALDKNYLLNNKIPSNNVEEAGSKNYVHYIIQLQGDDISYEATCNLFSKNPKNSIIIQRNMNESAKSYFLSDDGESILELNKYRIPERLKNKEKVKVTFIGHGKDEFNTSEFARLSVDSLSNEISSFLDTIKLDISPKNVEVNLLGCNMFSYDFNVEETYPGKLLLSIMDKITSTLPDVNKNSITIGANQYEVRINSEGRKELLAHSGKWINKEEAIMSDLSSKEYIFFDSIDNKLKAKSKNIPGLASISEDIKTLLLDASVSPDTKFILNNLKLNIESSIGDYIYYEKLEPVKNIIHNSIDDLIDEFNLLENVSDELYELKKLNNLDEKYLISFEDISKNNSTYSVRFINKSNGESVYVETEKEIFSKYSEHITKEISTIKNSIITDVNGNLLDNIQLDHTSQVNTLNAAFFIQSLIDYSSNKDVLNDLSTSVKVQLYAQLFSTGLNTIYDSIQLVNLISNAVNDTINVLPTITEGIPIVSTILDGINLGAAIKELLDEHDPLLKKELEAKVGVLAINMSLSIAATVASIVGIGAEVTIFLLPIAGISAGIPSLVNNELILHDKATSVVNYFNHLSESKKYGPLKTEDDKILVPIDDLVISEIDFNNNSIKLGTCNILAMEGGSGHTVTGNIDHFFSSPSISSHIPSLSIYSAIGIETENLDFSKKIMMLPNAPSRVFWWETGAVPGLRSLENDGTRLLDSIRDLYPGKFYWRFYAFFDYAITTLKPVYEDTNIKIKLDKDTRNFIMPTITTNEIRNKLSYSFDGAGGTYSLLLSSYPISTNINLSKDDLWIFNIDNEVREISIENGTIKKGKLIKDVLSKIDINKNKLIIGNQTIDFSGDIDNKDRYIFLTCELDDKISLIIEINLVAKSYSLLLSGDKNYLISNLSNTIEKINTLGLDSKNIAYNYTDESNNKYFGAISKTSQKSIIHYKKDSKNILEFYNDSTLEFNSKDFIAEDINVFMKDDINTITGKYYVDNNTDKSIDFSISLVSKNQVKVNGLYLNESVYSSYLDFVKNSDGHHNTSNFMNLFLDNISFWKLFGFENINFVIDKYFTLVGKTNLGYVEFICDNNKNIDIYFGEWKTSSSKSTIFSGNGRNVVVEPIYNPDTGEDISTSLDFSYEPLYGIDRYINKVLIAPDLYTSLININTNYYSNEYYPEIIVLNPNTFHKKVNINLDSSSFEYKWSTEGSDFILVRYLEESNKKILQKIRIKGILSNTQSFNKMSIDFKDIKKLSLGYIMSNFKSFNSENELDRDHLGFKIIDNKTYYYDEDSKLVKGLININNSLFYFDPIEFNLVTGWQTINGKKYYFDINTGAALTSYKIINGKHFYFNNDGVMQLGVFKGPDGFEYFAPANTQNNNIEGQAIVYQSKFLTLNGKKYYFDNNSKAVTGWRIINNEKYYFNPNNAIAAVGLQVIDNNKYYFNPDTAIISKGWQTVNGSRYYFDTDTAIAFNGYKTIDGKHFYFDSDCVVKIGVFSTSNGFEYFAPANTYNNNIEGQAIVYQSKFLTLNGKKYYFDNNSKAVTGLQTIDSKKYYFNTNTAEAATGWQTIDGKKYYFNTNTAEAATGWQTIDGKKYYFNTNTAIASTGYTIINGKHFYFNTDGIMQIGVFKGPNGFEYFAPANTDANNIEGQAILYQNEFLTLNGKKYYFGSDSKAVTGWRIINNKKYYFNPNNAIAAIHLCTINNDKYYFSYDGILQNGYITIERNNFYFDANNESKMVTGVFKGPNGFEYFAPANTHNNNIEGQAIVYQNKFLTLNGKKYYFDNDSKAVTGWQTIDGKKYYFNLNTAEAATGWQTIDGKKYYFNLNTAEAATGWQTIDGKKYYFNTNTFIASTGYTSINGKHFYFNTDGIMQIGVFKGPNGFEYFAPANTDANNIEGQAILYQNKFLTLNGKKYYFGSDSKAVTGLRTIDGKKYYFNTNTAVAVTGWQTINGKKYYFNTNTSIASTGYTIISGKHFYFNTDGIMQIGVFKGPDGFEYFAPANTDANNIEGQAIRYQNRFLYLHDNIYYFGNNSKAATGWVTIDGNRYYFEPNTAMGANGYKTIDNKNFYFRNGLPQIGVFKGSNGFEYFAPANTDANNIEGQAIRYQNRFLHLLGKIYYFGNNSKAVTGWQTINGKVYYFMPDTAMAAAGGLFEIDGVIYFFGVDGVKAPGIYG

| Binder | Kd [nM] | koff [s⁻¹] | kon [M⁻¹ s⁻¹] |
| --- | --- | --- | --- |
| B1 | 0.002 | 1.21e-06 | 696000 |
| B2 | 19.7 | 0.000692 | 35200 |
